The test concerns the target calmodulin-Sepharose, P0DP23. Nature of the test: pull-down. Particulars: remark: other sources report otherwise.

B1: purified recombinant human LATS1 (active kinase), O95835 1-1130 (enzyme)
chain: MKRSEKPEGYRQMRPKTFPASNYTVSSRQMLQEIRESLRNLSKPSDAAKAEHNMSKMSTEDPRQVRNPPKFGTHHKALQEIRNSLLPFANETNSSRSTSEVNPQMLQDLQAAGFDEDMVIQALQKTNNRSIEAAIEFISKMSYQDPRREQMAAAAARPINASMKPGNVQQSVNRKQSWKGSKESLVPQRHGPPLGESVAYHSESPNSQTDVGRPLSGSGISAFVQAHPSNGQRVNPPPPPQVRSVTPPPPPRGQTPPPRGTTPPPPSWEPNSQTKRYSGNMEYVISRISPVPPGAWQEGYPPPPLNTSPMNPPNQGQRGISSVPVGRQPIIMQSSSKFNFPSGRPGMQNGTGQTDFMIHQNVVPAGTVNRQPPPPYPLTAANGQSPSALQTGGSAAPSSYTNGSIPQSMMVPNRNSHNMELYNISVPGLQTNWPQSSSAPAQSSPSSGHEIPTWQPNIPVRSNSFNNPLGNRASHSANSQPSATTVTAITPAPIQQPVKSMRVLKPELQTALAPTHPSWIPQPIQTVQPSPFPEGTASNVTVMPPVAEAPNYQGPPPPYPKHLLHQNPSVPPYESISKPSKEDQPSLPKEDESEKSYENVDSGDKEKKQITTSPITVRKNKKDEERRESRIQSYSPQAFKFFMEQHVENVLKSHQQRLHRKKQLENEMMRVGLSQDAQDQMRKMLCQKESNYIRLKRAKMDKSMFVKIKTLGIGAFGEVCLARKVDTKALYATKTLRKKDVLLRNQVAHVKAERDILAEADNEWVVRLYYSFQDKDNLYFVMDYIPGGDMMSLLIRMGIFPESLARFYIAELTCAVESVHKMGFIHRDIKPDNILIDRDGHIKLTDFGLCTGFRWTHDSKYYQSGDHPRQDSMDFSNEWGDPSSCRCGDRLKPLERRAARQHQRCLAHSLVGTPNYIAPEVLLRTGYTQLCDWWSVGVILFEMLVGQPPFLAQTPLETQMKVINWQTSLHIPPQAKLSPEASDLIIKLCRGPEDRLGKNGADEIKAHPFFKTIDFSSDLRQQSASYIPKITHPTDTSNFDPVDPDKLWSDDNEEENVNDTLNGWYKNGKHPEHAFYEFTFRRFFDDNGYPYNYPKPIEYEYINSQGSEQQSDEDDQNTGSEIKNRDLVYV
On to B1, for which the percent reduction of binding with EGTA against Ca2+ turned out to be 70.9%.

B2: large tumor suppressor 1 kinase (endogenous, HEK293 cells), O95835 1-1130 (enzyme)
chain: MKRSEKPEGYRQMRPKTFPASNYTVSSRQMLQEIRESLRNLSKPSDAAKAEHNMSKMSTEDPRQVRNPPKFGTHHKALQEIRNSLLPFANETNSSRSTSEVNPQMLQDLQAAGFDEDMVIQALQKTNNRSIEAAIEFISKMSYQDPRREQMAAAAARPINASMKPGNVQQSVNRKQSWKGSKESLVPQRHGPPLGESVAYHSESPNSQTDVGRPLSGSGISAFVQAHPSNGQRVNPPPPPQVRSVTPPPPPRGQTPPPRGTTPPPPSWEPNSQTKRYSGNMEYVISRISPVPPGAWQEGYPPPPLNTSPMNPPNQGQRGISSVPVGRQPIIMQSSSKFNFPSGRPGMQNGTGQTDFMIHQNVVPAGTVNRQPPPPYPLTAANGQSPSALQTGGSAAPSSYTNGSIPQSMMVPNRNSHNMELYNISVPGLQTNWPQSSSAPAQSSPSSGHEIPTWQPNIPVRSNSFNNPLGNRASHSANSQPSATTVTAITPAPIQQPVKSMRVLKPELQTALAPTHPSWIPQPIQTVQPSPFPEGTASNVTVMPPVAEAPNYQGPPPPYPKHLLHQNPSVPPYESISKPSKEDQPSLPKEDESEKSYENVDSGDKEKKQITTSPITVRKNKKDEERRESRIQSYSPQAFKFFMEQHVENVLKSHQQRLHRKKQLENEMMRVGLSQDAQDQMRKMLCQKESNYIRLKRAKMDKSMFVKIKTLGIGAFGEVCLARKVDTKALYATKTLRKKDVLLRNQVAHVKAERDILAEADNEWVVRLYYSFQDKDNLYFVMDYIPGGDMMSLLIRMGIFPESLARFYIAELTCAVESVHKMGFIHRDIKPDNILIDRDGHIKLTDFGLCTGFRWTHDSKYYQSGDHPRQDSMDFSNEWGDPSSCRCGDRLKPLERRAARQHQRCLAHSLVGTPNYIAPEVLLRTGYTQLCDWWSVGVILFEMLVGQPPFLAQTPLETQMKVINWQTSLHIPPQAKLSPEASDLIIKLCRGPEDRLGKNGADEIKAHPFFKTIDFSSDLRQQSASYIPKITHPTDTSNFDPVDPDKLWSDDNEEENVNDTLNGWYKNGKHPEHAFYEFTFRRFFDDNGYPYNYPKPIEYEYINSQGSEQQSDEDDQNTGSEIKNRDLVYV
Molecule B2 returned a fold more bound with Ca2+ than with EGTA of 11 fold.

(Values after publication PMC9019248.)
